Data on three sequences can be found in the supplement of paper PMC6379048.

Common to all, as to test: Kd (EC50 corrected by depletion factor)
One data set concerns the target AGO1 (UniProt Q9UL18). In outline: (§1)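 Over three biological replicates and two independent experiments, proteins captured on NHS-Sepharose beads carrying 5′-amino-C6 RNA oligos were quantified by label-free LC-MS/MS and normalised to the control. Capture lasted 30 min at 4°C and followed a 1 h pre-incubation at 4°C of HEK293-FT lysate (2.5 mg protein/well) with the same oligos in free form (0 nM to 30 μM). EC50 was taken from a four-parameter log-logistic fit, and Kd was EC50 corrected by a protein-dependent depletion factor.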

Another data set concerns the target T1, C1QBP (UniProt Q07021).
T1 sequence: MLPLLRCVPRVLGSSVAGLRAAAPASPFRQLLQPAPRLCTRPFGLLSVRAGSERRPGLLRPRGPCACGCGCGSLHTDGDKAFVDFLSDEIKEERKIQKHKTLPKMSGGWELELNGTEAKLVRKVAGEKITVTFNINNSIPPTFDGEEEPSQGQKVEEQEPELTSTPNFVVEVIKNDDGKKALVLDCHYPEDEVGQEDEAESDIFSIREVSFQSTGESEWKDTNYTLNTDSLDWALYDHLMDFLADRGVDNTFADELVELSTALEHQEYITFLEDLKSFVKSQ
The method, boiled down: as §1

The target of the next data set is CXorf57 (UniProt Q6NSI4). The method, boiled down: as §1
Chain of CXorf57 (Q6NSI4 whole entry): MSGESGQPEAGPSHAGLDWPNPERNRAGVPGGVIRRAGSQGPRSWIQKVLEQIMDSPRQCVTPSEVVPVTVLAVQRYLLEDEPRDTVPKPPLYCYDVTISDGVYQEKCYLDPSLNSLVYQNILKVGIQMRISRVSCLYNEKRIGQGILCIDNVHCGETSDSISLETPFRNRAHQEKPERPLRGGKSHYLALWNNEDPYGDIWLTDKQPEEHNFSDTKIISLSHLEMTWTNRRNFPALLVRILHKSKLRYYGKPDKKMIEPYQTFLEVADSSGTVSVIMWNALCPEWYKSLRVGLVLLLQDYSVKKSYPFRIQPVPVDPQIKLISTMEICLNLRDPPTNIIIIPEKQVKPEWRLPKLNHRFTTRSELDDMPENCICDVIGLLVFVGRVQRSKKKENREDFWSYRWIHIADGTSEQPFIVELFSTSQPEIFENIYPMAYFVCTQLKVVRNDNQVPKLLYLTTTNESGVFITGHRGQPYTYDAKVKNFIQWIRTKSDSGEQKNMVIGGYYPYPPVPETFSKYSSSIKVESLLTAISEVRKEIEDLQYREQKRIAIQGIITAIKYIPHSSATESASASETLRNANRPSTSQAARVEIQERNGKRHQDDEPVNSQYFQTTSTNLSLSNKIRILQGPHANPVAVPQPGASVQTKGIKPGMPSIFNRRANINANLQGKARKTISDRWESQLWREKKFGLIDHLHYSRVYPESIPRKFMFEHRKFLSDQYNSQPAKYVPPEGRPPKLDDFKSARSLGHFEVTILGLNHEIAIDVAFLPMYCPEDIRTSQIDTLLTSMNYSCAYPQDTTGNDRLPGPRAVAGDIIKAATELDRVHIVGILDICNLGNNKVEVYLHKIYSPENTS
A further data set concerns the target T2, IFIT5 (UniProt Q13325).
T2 sequence: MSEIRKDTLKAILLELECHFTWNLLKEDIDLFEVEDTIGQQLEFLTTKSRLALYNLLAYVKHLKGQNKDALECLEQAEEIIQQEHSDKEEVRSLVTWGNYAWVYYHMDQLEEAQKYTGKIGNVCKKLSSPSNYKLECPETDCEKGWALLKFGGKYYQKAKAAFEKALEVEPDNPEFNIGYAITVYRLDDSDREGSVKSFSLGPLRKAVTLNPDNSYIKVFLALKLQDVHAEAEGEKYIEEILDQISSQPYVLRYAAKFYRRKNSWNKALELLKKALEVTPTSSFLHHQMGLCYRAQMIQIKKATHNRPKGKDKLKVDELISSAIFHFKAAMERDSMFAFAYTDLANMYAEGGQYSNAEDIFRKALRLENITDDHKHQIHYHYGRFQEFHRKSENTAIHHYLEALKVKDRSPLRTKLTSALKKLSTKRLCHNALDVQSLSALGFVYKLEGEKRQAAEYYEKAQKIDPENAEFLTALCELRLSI
The method, boiled down:
as §1

For a further data set, the target named is P4HA1 (UniProt P13674). In outline: as §1
Chain of P4HA1 (P13674 whole entry): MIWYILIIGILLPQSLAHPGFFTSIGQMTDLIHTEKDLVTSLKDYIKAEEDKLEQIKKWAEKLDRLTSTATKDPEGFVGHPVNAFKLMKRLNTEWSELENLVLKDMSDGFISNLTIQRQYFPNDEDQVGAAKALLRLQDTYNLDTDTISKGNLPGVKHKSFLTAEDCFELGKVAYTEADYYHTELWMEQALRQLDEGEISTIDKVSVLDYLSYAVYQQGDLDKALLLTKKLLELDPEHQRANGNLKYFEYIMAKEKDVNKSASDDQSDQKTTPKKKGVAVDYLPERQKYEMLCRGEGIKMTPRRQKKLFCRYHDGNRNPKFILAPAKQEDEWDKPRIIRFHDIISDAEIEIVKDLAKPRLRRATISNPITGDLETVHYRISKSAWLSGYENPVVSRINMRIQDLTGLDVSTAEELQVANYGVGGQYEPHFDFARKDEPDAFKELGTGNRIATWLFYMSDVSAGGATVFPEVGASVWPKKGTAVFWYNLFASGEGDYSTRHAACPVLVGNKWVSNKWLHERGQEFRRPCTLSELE
The target in a further data set is P4HB (UniProt P07237). In outline: as §1
Chain of P4HB (P07237 whole entry, looked up): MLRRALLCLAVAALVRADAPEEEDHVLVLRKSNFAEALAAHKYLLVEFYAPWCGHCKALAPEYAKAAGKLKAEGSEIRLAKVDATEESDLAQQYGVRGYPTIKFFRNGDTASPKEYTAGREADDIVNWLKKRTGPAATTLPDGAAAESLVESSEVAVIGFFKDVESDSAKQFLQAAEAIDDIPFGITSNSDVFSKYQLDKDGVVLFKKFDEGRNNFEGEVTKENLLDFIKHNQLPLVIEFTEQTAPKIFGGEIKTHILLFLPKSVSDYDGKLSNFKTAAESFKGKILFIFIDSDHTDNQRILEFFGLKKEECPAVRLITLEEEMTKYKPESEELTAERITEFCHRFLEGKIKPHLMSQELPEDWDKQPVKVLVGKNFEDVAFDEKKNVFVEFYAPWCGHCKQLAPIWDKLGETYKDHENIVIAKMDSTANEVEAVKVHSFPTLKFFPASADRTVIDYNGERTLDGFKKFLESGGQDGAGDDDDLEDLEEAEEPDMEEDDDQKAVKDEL
The target in another data set is RPS17 (UniProt P08708). The method, boiled down: as §1
The target in a further data set is T3, SF3B5 (UniProt Q9BWJ5).
T3 sequence: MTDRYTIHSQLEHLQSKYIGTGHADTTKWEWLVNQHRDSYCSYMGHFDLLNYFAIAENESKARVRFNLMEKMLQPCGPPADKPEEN
In outline: as §1

The next data set concerns the target T4, ANGEL2 (UniProt Q5VTE6).
T4 sequence: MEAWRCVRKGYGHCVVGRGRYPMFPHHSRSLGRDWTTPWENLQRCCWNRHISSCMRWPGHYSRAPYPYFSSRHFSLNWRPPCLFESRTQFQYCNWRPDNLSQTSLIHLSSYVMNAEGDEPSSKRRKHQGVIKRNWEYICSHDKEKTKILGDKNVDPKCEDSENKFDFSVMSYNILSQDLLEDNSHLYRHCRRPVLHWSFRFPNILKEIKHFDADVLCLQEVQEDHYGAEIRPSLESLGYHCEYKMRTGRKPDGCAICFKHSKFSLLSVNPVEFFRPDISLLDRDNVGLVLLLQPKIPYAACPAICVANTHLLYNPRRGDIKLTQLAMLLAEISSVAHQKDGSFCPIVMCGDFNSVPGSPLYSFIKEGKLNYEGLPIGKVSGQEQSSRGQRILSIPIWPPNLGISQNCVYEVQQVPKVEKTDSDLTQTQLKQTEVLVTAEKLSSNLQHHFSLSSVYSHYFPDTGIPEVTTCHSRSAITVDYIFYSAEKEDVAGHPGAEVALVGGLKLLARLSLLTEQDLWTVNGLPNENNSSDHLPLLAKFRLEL
The method, boiled down:
as §1

A further data set deals with GNB2L1 (UniProt P63244). The method, boiled down:
as §1

A further data set deals with IGF2BP3 (UniProt O00425). In outline:
as §1

For a further data set, the target named is MRPL13 (UniProt Q9BYD1). In outline:
as §1

The target of a further data set is RPS12 (UniProt P25398). In outline: as §1
The next data set concerns the target TTC37 (UniProt Q6PGP7). The method, boiled down: as §1

Chain of IGF2BP3 (O00425 whole entry): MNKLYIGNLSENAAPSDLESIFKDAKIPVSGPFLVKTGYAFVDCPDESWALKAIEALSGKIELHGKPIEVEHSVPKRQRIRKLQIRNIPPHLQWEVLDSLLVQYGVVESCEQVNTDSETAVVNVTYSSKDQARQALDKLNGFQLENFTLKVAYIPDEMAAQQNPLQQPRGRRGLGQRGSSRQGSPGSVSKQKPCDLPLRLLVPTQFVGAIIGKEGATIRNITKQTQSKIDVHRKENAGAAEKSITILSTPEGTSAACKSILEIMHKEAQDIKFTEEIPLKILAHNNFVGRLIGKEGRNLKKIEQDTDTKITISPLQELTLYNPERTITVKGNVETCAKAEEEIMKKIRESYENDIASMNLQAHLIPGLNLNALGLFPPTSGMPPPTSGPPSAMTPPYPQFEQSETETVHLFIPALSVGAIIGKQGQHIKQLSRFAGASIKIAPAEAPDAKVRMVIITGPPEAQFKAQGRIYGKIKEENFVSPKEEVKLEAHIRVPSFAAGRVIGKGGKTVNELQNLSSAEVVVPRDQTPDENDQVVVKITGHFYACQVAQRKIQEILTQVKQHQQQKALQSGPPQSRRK
Chain of TTC37 (Q6PGP7 whole entry): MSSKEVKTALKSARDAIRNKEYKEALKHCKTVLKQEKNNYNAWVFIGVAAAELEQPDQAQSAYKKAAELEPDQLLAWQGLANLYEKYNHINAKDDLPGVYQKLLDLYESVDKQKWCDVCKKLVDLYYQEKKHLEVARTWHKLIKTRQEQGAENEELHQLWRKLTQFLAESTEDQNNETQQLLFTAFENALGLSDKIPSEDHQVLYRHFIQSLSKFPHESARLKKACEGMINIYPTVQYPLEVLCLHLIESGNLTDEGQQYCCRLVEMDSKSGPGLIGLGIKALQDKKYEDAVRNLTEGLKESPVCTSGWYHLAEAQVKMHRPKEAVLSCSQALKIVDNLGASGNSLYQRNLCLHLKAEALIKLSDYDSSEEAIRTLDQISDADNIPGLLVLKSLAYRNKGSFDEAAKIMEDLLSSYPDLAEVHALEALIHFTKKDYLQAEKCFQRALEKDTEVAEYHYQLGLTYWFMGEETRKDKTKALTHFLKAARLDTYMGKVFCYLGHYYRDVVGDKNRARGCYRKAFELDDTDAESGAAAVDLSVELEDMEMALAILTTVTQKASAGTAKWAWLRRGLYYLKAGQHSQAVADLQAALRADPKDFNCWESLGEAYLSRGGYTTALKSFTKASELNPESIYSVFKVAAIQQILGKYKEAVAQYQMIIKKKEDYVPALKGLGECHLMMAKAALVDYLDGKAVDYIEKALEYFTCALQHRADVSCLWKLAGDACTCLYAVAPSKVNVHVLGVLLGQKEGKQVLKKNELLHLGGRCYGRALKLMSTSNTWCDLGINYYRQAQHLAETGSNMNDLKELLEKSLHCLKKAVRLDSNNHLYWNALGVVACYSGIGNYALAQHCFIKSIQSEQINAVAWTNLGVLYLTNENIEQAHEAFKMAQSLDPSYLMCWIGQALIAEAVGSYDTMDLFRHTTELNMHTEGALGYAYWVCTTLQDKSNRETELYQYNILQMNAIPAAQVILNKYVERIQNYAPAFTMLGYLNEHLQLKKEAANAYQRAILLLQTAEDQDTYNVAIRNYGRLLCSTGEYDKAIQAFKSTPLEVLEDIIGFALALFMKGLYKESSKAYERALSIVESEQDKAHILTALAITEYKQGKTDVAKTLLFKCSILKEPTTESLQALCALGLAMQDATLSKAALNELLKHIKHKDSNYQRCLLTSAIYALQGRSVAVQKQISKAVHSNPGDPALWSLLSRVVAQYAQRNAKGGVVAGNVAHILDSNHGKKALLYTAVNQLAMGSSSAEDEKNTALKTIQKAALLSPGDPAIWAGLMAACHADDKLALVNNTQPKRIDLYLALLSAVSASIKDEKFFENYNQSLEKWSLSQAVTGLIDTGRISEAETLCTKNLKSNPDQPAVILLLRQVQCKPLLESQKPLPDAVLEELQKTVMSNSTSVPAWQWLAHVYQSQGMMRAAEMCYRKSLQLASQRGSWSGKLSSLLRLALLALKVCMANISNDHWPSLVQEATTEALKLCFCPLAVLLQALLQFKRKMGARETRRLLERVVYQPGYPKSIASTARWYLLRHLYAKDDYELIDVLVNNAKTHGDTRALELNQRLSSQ

For orientation: Kd means the equilibrium constant for the complex coming apart. Read a high Kd as weaker binding. With AAUAAA, the Kd with AGO1 came out at 78.7 nM; with C1QBP it was 477 nM; in the data set with CXorf57 it was 1040 nM; with IFIT5, 363 nM; with P4HA1 it was 23.8 nM; in the data set with P4HB, 24.8 nM. In addition, the Kd with RPS17 came out at 126 nM; with SF3B5, 766 nM.
For CUGUCCU, the Kd in the data set with ANGEL2 came out at 144 nM; with GNB2L1 it was 808 nM; with IGF2BP3, 685 nM; in the data set with MRPL13 it was 78.4 nM; with RPS12 it was 128 nM.
Regarding UAUUUAU, in the data set with TTC37, the Kd was found to be 577 nM.
